Measured values taken from paper PMC9105384, “Ethyl Gallate Dual-Targeting PTPN6 and PPARγ Shows Anti-Diabetic and Anti-Obese Effects” (International Journal of Molecular Sciences, 2022).

substrate: Cc1cc(=O)oc2c(F)c(OP(=O)(O)O)c(F)cc12; test: purified protein, by the assay type; design: DiFMUP hydrolysis by purified PTPs, fluorescence Ex355/Em460, initial rates over 10 min; Michaelis-Menten and Lineweaver-Burk Km
Procedure: The enzymatic activity of each PTP was evaluated using 6,8-difluoro-4-methylumbelliferyl phosphate (DiFMUP) as the surrogate substrate. To reach within the range of the initial rate (v0) during the measurement for 10 min, the pH and concentration of each PTP were optimized and are listed in Table S3. To determine the Km values, each PTP with optimized concentration was added to the reaction buffer (20 mM Bis-Tris at pH 6.0 or Tris at pH 7.0 and 8.0, 150 mM NaCl, 2.5 mM dithiothreitol (DTT), 0.01% Triton X-100) containing various concentrations of DiFMUP to obtain a final volume of 100 μL in a 96-well plate. Fluorescence intensities were measured once every minute for a complete 10 min duration using a Victor™ X4 Multilabel Plate Reader (Perkin Elmer, Waltham, MA, USA) at excitation/emission = 355 nm/460 nm. The initial rates of the reaction were determined using a previously described procedure for calculating the amount of product formation. To screen a library of 1033 natural products (Chengdu Biopurify Phytochemicals Ltd., Chengdu, China) against 20 PTPs, each PTP with an optimized concentration was added to the reaction buffer with an optimized pH containing DiFMUP (2 × Km for each PTP) after adding each compound (20 μM). […] The IC50 values were estimated using a sigmoid plot in GraphPad Prism 5 software (GraphPad Software Inc., San Diego, CA, USA). The Hill coefficient (nH), the degree of cooperativity, was calculated according to a previously published method. To determine the inhibition constant (Ki) and identify the inhibition mode of EG, various concentrations of EG (2.5, 5, 10, and 20 μM) were assayed with various concentrations of DiFMUP (260, 130, 65, and 32.5 μM). Kinetic parameters were obtained using Dixon plots for Ki and Lineweaver-Burk plots for the inhibition mode.

Protein | Km
DUSP14 (Homo sapiens) (protein) MSSRGHSTLPRTLMAPRMISEGDIGGIAQITSSLFLGRGSVASNRHLLQARGITCIVNATIEIPNFNWPQFEYVKVPLADMPHAPIGLYFDTVADKIHSVSRKHGATLVHCAAGVSRSATLCIAYLMKFHNVCLLEAYNWVKARRPVIRPNVGFWRQLIDYERQLFGKSTVKMVQTPYGIVPDVYEKESRHLMPYWGI | 55.0 µM
DUSP3 (Homo sapiens) (protein) MSGSFELSVQDLNDLLSDGSGCYSLPSQPCNEVTPRIYVGNASVAQDIPKLQKLGITHVLNAAEGRSFMHVNTNANFYKDSGITYLGIKANDTQEFNLSAYFERAADFIDQALAQKNGRVLVHCREGYSRSPTLVIAYLMMRQKMDVKSALSIVRQNREIGPNDGFLAQLCQLNDRLAKEGKLKP | 100.0 µM
PTPN18 (Homo sapiens) (protein) MSRSLDSARSFLERLEARGGREGAVLAGEFSDIQACSAAWKADGVCSTVAGSRPENVRKNRYKDVLPYDQTRVILSLLQEEGHSDYINGNFIRGVDGSLAYIATQGPLPHTLLDFWRLVWEFGVKVILMACREIENGRKRCERYWAQEQEPLQTGLFCITLIKEKWLNEDIMLRTLKVTFQKESRSVYQLQYMSWPDRGVPSSPDHMLAMVEEARRLQGSGPEPLCVHCSAGCGRTGVLCTVDYVRQLLLTQMIPPDFSLFDVVLKMRKQRPAAVQTEEQYRFLYHTVAQMFCSTLQNASPHYQNIKENCAPLYDDALFLRTPQALLAIPRPPGGVLRSISVPGSPGHAMADTYAVVQKRGAPAGAGSGTQTGTGTGTGARSAEEAPLYSKVTPRAQRPGAHAEDARGTLPGRVPADQSPAGSGAYEDVAGGAQTGGLGFNLRIGRPKGPRDPPAEWTRV | 5.5 µM
PTPN21 (Homo sapiens) (protein) MPLPFGLKLKRTRRYTVSSKSCLVARIQLLNNEFVEFTLSVESTGQESLEAVAQRLELREVTYFSLWYYNKQNQRRWVDLEKPLKKQLDKYALEPTVYFGVVFYVPSVSQLQQEITRYQYYLQLKKDILEGSIPCTLEQAIQLAGLAVQADFGDFDQYESQDFLQKFALFPVGWLQDEKVLEEATQKVALLHQKYRGLTAPDAEMLYMQEVERMDGYGEESYPAKDSQGSDISIGACLEGIFVKHKNGRHPVVFRWHDIANMSHNKSFFALELANKEETIQFQTEDMETAKYIWRLCVARHKFYRLNQCNLQTQTVTVNPIRRRSSSRMSLPKPQPYVMPPPPQLHYNGHYTEPYASSQDNLFVPNQNGYYCHSQTSLDRAQIDLNGRIRNGSVYSAHSTNSLNNPQPYLQPSPMSSNPSITGSDVMRPDYLPSHRHSAVIPPSYRPTPDYETVMKQLNRGLVHAERQSHSLRNLNIGSSYAYSRPAALVYSQPEIREHAQLPSPAAAHCPFSLSYSFHSPSPYPYPAERRPVVGAVSVPELTNAQLQAQDYPSPNIMRTQVYRPPPPYPPPRPANSTPDLSRHLYISSSNPDLITRRVHHSVQTFQEDSLPVAHSLQEVSEPLTAARHAQLHKRNSIEVAGLSHGLEGLRLKERTLSASAAEVAPRAVSVGSQPSVFTERTQREGPEEAEGLRYGHKKSLSDATMLIHSSEEEEDEDFEEESGARAPPARAREPRPGLAQDPPGCPRVLLAGPLHILEPKAHVPDAEKRMMDSSPVRTTAEAQRPWRDGLLMPSMSESDLTTSGRYRARRDSLKKRPVSDLLSGKKNIVEGLPPLGGMKKTRVDAKKIGPLKLAALNGLSLSRVPLPDEGKEVATRATNDERCKILEQRLEQGMVFTEYERILKKRLVDGECSTARLPENAERNRFQDVLPYDDVRVELVPTKENNTGYINASHIKVSVSGIEWDYIATQGPLQNTCQDFWQMVWEQGIAIIAMVTAEEEGGREKSFRYWPRLGSRHNTVTYGRFKITTRFRTDSGCYATTGLKMKHLLTGQERTVWHLQYTDWPEHGCPEDLKGFLSYLEEIQSVRRHTNSTSDPQSPNPPLLVHCSAGVGRTGVVILSEIMIACLEHNEVLDIPRVLDMLRQQRMMLVQTLCQYTFVYRVLIQFLKSSRLI | 46.7 µM
PTPN12 (Homo sapiens) (protein) MEQVEILRKFIQRVQAMKSPDHNGEDNFARDFMRLRRLSTKYRTEKIYPTATGEKEENVKKNRYKDILPFDHSRVKLTLKTPSQDSDYINANFIKGVYGPKAYVATQGPLANTVIDFWRMIWEYNVVIIVMACREFEMGRKKCERYWPLYGEDPITFAPFKISCEDEQARTDYFIRTLLLEFQNESRRLYQFHYVNWPDHDVPSSFDSILDMISLMRKYQEHEDVPICIHCSAGCGRTGAICAIDYTWNLLKAGKIPEEFNVFNLIQEMRTQRHSAVQTKEQYELVHRAIAQLFEKQLQLYEIHGAQKIADGVNEINTENMVSSIEPEKQDSPPPKPPRTRSCLVEGDAKEEILQPPEPHPVPPILTPSPPSAFPTVTTVWQDNDRYHPKPVLHMVSSEQHSADLNRNYSKSTELPGKNESTIEQIDKKLERNLSFEIKKVPLQEGPKSFDGNTLLNRGHAIKIKSASPCIADKISKPQELSSDLNVGDTSQNSCVDCSVTQSNKVSVTPPEESQNSDTPPRPDRLPLDEKGHVTWSFHGPENAIPIPDLSEGNSSDINYQTRKTVSLTPSPTTQVETPDLVDHDNTSPLFRTPLSFTNPLHSDDSDSDERNSDGAVTQNKTNISTASATVSAATSTESISTRKVLPMSIARHNIAGTTHSGAEKDVDVSEDSPPPLPERTPESFVLASEHNTPVRSEWSELQSQERSEQKKSEGLITSENEKCDHPAGGIHYEMCIECPPTFSDKREQISENPTEATDIGFGNRCGKPKGPRDPPSEWT | 75.8 µM
DUSP15 (Homo sapiens) (protein) MTEGVLPGLYLGNFIDAKDLDQLGRNKITHIISIHESPQPLLQDITYLRIPVADTPEVPIKKHFKECINFIHCCRLNGGNCLVHCFAGISRSTTIVTAYVMTVTGLGWRDVLEAIKATRPIANPNPGFRQQLEEFGWASSQKGARHRTSKTSGAQCPPMTSATCLLAARVALLSAALVREATGRTAQRCRLSPRAAAERLLGPPPHVAAGWSPDPKYQICLCFGEEDPGPTQHPKEQLIMADVQVQLRPGSSSCTLSASTERPDGSSTPGNPDGITHLQCSCLHPKRAASSSCTR | 9.1 µM
DUSP22 (Homo sapiens) (protein) MGNGMNKILPGLYIGNFKDARDAEQLSKNKVTHILSVHDSARPMLEGVKYLCIPAADSPSQNLTRHFKESIKFIHECRLRGESCLVHCLAGVSRSVTLVIAYIMTVTDFGWEDALHTVRAGRSCANPNVGFQRQLQEFEKHEVHQYRQWLKEEYGESPLQDAEEAKNILAAPGILKFWAFLRRL | 13.0 µM
DUSP9 (Homo sapiens) (protein) MEGLGRSCLWLRRELSPPRPRLLLLDCRSRELYESARIGGALSVALPALLLRRLRRGSLSVRALLPGPPLQPPPPAPVLLYDQGGGRRRRGEAEAEAEEWEAESVLGTLLQKLREEGYLAYYLQGGFSRFQAECPHLCETSLAGRAGSSMAPVPGPVPVVGLGSLCLGSDCSDAESEADRDSMSCGLDSEGATPPPVGLRASFPVQILPNLYLGSARDSANLESLAKLGIRYILNVTPNLPNFFEKNGDFHYKQIPISDHWSQNLSRFFPEAIEFIDEALSQNCGVLVHCLAGVSRSVTVTVAYLMQKLHLSLNDAYDLVKRKKSNISPNFNFMGQLLDFERSLRLEERHSQEQGSGGQASAASNPPSFFTTPTSDGAFELAPT | 35.0 µM
PTPN14 (Homo sapiens) (protein) MPFGLKLRRTRRYNVLSKNCFVTRIRLLDSNVIECTLSVESTGQECLEAVAQRLELRETHYFGLWFLSKSQQARWVELEKPLKKHLDKFANEPLLFFGVMFYVPNVSWLQQEATRYQYYLQVKKDVLEGRLRCTLDQVIRLAGLAVQADFGDYNQFDSQDFLREYVLFPMDLALEEAVLEELTQKVAQEHKAHSGILPAEAELMYINEVERLDGFGQEIFPVKDNHGNCVHLGIFFMGIFVRNRIGRQAVIYRWNDMGNITHNKSTILVELINKEETALFHTDDIENAKYISRLFATRHKFYKQNKICTEQSNSPPPIRRQPTWSRSSLPRQQPYILPPVHVQCGEHYSETHTSQDSIFHGNEEALYCNSHNSLDLNYLNGTVTNGSVCSVHSVNSLNCSQSFIQASPVSSNLSIPGSDIMRADYIPSHRHSAIIVPSYRPTPDYETVMRQMKRGILHTDSQSQSLRNLNIINTHAYNQPEDLVYSQPEMRERHPYTVPYGPQGVYSNKLVSPSDQRNPKNNVVPSKPGASAISHTVSTPELANMQLQGSHNYSTAHMLKNYLFRPPPPYPRPRPATSTPDLASHRHKYVSGSSPDLVTRKVQLSVKTFQEDSSPVVHQSLQEVSEPLTATKHHGTVNKRHSLEVMNSMVRGMEAMTLKSLHLPMARRNTLREQGPPEEGSGSHEVPQLPQYHHKKTFSDATMLIHSSESEEEEEEAPESVPQIPMLREKMEYSAQLQAALARIPNKPPPEYPGPRKSVSNGALRQDQASLPPAMARARVLRHGPAKAISMSRTDPPAVNGASLGPSISEPDLTSVKERVKKEPVKERPVSEMFSLEDSIIEREMMIRNLEKQKMAGLEAQKRPLMLAALNGLSVARVSGREENRVDATRVPMDERFRTLKKKLEEGMVFTEYEQIPKKKANGIFSTAALPENAERSRIREVVPYEENRVELIPTKENNTGYINASHIKVVVGGAEWHYIATQGPLPHTCHDFWQMVWEQGVNVIAMVTAEEEGGRTKSHRYWPKLGSKHSSATYGKFKVTTKFRTDSVCYATTGLKVKHLLSGQERTVWHLQYTDWPDHGCPEDVQGFLSYLEEIQSVRRHTNSMLEGTKNRHPPIVVHCSAGVGRTGVLILSELMIYCLEHNEKVEVPMMLRLLREQRMFMIQTIAQYKFVYQVLIQFLQNSRLI | 423.7 µM
DUSP18 (Homo sapiens) (protein) MTAPSCAFPVQFRQPSVSGLSQITKSLYISNGVAANNKLMLSSNQITMVINVSVEVVNTLYEDIQYMQVPVADSPNSRLCDFFDPIADHIHSVEMKQGRTLLHCAAGVSRSAALCLAYLMKYHAMSLLDAHTWTKSCRPIIRPNSGFWEQLIHYEFQLFGKNTVHMVSSPVGMIPDIYEKEVRLMIPL | 29.0 µM
